Data: patent US20040033229A1 (published 2004)

Target: prostate specific membrane antigen (PSMA), full-length, on the cell surface (human, UniProt Q04609 1-750)
Assay: cell-based or functional assay

Chain of prostate specific membrane antigen (PSMA), full-length, on the cell surface (Q04609 whole entry): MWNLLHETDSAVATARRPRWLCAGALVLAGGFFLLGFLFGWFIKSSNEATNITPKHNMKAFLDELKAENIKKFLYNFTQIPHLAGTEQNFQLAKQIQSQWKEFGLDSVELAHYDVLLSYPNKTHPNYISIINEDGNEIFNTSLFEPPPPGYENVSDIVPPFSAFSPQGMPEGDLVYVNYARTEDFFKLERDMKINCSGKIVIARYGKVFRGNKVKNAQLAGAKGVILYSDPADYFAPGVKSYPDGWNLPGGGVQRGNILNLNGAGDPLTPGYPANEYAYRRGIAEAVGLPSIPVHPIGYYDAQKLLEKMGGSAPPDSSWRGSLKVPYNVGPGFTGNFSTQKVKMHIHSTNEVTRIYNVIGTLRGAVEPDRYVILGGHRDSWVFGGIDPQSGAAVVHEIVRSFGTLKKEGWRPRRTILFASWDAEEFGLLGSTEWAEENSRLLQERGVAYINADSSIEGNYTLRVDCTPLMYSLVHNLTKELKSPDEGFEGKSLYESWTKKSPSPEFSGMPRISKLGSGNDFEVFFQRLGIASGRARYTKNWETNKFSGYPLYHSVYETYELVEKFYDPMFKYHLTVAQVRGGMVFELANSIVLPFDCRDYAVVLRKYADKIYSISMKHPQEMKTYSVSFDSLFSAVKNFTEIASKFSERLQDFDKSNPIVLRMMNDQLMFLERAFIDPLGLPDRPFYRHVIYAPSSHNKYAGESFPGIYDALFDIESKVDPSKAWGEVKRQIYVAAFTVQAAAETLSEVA

B1: 225Ac labeled mAb 026 (antibody, V domains shown)
VH: QVQLVESGGGVVQPGRSLRLSCAASGFTFSNYVMHWVRQAPGKGLEWVAIIWYDGSNKYYADSVKGRFTISRDNSKNTLYLQMNSLRAEDTAVYYCAGGYNWNYEYHYYGMDVWGQGTTVTVSS
VL: DIQMTQSPSSLSASVGDRVTITCRASQGITNYLAWFQQKPGKAPKSLIYAASSLQSGVPSKFSGSGSGTDFSLTISSLQPEDFATYYCQQYNSYPITFGQGTRLEIK
modifications: 225Ac-DOTA conjugate, sites not stated; 225Ac-DOTA conjugate, sites not stated ; 225Ac chelated by DOTA and conjugated to the antibody; sites not stated
  IC50 of cell survival (3H thymidine incorporation), C4-2 cells: 0.12 nCi/mL
  IC50 of cell survival, C4-2 and LNCaP cells: < 1 nCi/mL
  selectivity of killing, C4-2 against PC3: > 50 fold
